Target: fluorescent peptide probe FITC-PEG2-…-Nle-IKKLEW
Assay: fluorescence polarisation

B55α (His-Strep-TEV fusion protein), sequence (P63151 whole entry, the tested form may be a part): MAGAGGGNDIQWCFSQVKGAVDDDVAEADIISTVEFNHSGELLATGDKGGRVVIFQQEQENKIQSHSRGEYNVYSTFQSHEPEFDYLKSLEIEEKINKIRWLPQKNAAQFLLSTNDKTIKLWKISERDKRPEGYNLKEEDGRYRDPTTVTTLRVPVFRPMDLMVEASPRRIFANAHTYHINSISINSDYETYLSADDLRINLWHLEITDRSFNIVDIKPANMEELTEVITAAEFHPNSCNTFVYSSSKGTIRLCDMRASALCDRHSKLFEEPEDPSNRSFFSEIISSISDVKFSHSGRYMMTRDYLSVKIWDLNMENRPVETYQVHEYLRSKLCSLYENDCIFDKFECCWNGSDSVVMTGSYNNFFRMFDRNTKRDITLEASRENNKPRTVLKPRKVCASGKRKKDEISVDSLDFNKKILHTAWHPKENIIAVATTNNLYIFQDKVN

- Kd: 6 nM
Substance: B55α (His-Strep-TEV fusion protein) (from UniProt P63151 1-447) (natural protein)
